Test [1] has as its target T1, human DR3-Fc fusion protein (human, UniProt Q93038 25-199).
T1 construct: also called hDR3-Fc; not shown: Fc portion
T1 sequence: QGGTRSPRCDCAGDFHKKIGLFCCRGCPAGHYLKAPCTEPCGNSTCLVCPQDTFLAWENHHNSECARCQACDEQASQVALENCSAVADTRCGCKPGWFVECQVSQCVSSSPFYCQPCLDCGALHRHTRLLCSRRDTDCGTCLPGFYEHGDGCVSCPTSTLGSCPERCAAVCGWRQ
Briefly: BIAcore SPR; human DR3-Fc amine-coupled to CM5 chip, Fab in flow; ratio of average Kd. The protocol: (§1) Briefly, target proteins are covalently immoblilzed to the BIAcore CM5 sensor chip (Cat #BR-1000-14 (Biacore Life Sciences, Piscataway, N.J.)) via amine groups using N-ethyl-N′-(dimethylaminopropyl) carbodilimide/N-hydroxysuccinimide chemistry. Empty flow cells can be used as controls negative for target binding and for background subtraction. Six different concentrations of antibody molecules (range 0 to 50 nM) are flowed over the polypeptide-derivatized flow cells at 15 μL1/min for a total volume of 50 μl. The amount of bound protein is determined during washing of the flow cell with HBS buffer (10 mM HEPES [pH 7.4], 150 mM NaCl, 3.4 mM EDTA, and 0.005% Surfactant P20). The flow cell surface is regenerated by displacing bound protein by washing with 20 μl of 10 mM glycine-HCL (pH 2.3). For kinetic analysis, the on and off rates are determined using the kinetic evaluation program in BIAevaluation 3 software using a 1:1 binding model and the global analysis method.
(§2) In order to confirm that the humanized variant antibodies were capable of binding to the extracellular domain of DR3, the Kd values of eight humanized Fab variants were determined by BIAcore assay. In this experiment, a human DR3-Fc fusion protein was covalently immoblilzed to the BIAcore CM5 sensor chip. Empty flow cells that were negative for anti-DR3-Fab binding were used for background subtraction.

For test [2], the target named is T1, human DR3-Fc fusion protein. Briefly: BIAcore SPR; human DR3-Fc amine-coupled to CM5 chip, Fab in flow; 1:1 model; average of n=2. Here is the method: as §1, §2
Test [3] deals with T2, human DR3 receptor expressed on the cell surface (human, UniProt Q93038 25-417).
T2 construct: also called hDR3; TNFRSF25
T2 sequence: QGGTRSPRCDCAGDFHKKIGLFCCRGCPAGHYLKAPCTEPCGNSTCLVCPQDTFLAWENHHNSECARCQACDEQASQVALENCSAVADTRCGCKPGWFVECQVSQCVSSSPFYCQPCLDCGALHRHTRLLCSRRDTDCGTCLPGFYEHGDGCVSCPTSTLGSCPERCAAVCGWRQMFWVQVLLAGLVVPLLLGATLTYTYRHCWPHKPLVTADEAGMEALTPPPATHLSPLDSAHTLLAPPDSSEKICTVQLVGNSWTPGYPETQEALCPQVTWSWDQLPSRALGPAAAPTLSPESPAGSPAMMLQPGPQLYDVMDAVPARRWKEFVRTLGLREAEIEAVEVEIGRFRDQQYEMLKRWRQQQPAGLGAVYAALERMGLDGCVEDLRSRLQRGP
Kind of test: Flow cytometry on HEK293F cells transiently expressing human DR3. 1 ug/mL human TL1A, detected with anti-TL1A-biotin polyclonal antibody and streptavidin-PE. No competitor. The protocol: FIG. 4. Flow cytometry results of 11H08 binding to hDR3-expressing HEK293F cells. HEK293F cells transiently expressing human DR3 were used to test the ability of the whole 11H08 immunoglobulin molecule to inhibit human TL1A binding to DR3 (See, Example 2). HEK293F cells were incubated with 1 μg/mL of human TL1A in the presence of either an unrelated antibody (mIgG1) as an isotype control (known not to bind TL1A or DR3) or 11H08. […] The upper panels show binding of labeled TL1A either by itself or in the presence of an unrelated antibody (mIgG1).
The anti-DR3 monoclonal antibody 11H08 was assayed for its ability to inhibit human TL1A binding to human DR3 using techniques known to those skilled in the art. Briefly, HEK293F cells transiently expressing human DR3 were incubated with 1 μg/mL of human TL1A in the presence of either an unrelated antibody (mIgG1) as an isotype control that was known not to bind TL1A or DR3, or an anti-DR3 monoclonal antibody (11H08), for 20 minutes at room temperature. Binding was detected using an anti-TL1A-biotin polyclonal antibody followed by Streptavidin PE. The ability of the anti-DR3 monoclonal antibody to inhibit binding of TL1A to DR3 was measured by flow cytometry.
Background: Flow cytometry measures light scatter and fluorescence of single cells or particles in a stream.

Test [4] addresses T1, human DR3-Fc fusion protein. Briefly: BIAcore SPR; human DR3-Fc amine-coupled to CM5 chip, Fab-HSA in flow; 1:1 model; average of n=2. Here is the method: as §1
(§3) Additionally, H1L2-Fab and H5L2-Fab were fused to human serum albumin (See, Example 6) and similarly tested. The Kd values of H0L0-Fab-HSA, H1L2-Fab-HSA, and H5L2-Fab-HSA were determined by BIAcore analysis as described above.
In general terms: SPR reads the build-up and loss of mass on a sensor chip optically.

Test [5] shares this target. Briefly: BIAcore SPR; human DR3-Fc amine-coupled to CM5 chip, Fab-HSA in flow; ratio of average Kd. Here is the method:
as §1, §3

For orientation: Kd means the free concentration of one partner at which half of the binding sites on the other are occupied at equilibrium, for simple one-to-one binding. Low values mean a tighter complex, high ones a looser complex.

Changes are numbered by the printed parent chain.

B1: H4.2L2-Fab (Fab, V domains shown)
VH: QVQLVQSGSELKKPGASVKVSCKASGFTFTNYAMSWVRQAPGKRLEWVATITSGGSYIYYLDSVKGRFTISRENAKSTLYLQMNSLRTEDTALYYCARRKDGNYYYAMDYWGQGTTVTVSS
VL: DIVLTQSPSSLSASVGDRVTITCRASESVDSYGNSFIHWYQQKPGQPPKLLIYRASNLESGIPARFSGSGSRTDFTLTISSLQPEDFATYYCQQSYEDPWTFGGGTKLEIKR
For B1, the “Ratio of binding relative to H0L0-Fab” value in test [1] was found to be 1.46. In test [2], this molecule registered a Kd of 2.01 nM.

B2: H5.3L2-Fab (Fab, V domains shown)
VH: B1 VH with Q1E, Q3M, V5L, S9A, L11V, K43Q, E73D, Y80H, T88A, L93V
VL: B1 VL
In the case of B2, in test [1], the “Ratio of binding relative to H0L0-Fab” value amounted to 1.22. The same molecule gave a Kd in test [2] of 1.67 nM.

B3: human TL1A (ligand, UniProt O95150 72-251, looked up)
chain: LKGQEFAPSHQQVYAPLRADGDKPRAHLTVVRQTPTQHFKNQFPALHWEHELGLAFTKNRMNYTNKFLLIPESGDYFIYSQVTFRGMTSECSEIRQAGRPNKPDSITVVITKVTDSYPEPTQLLMGTKSVCEVGSNWFQPIYLGAMFSLQEGDKLMVNVSDISLVDYTKEDKTFFGAFLL
notes: also called hTL1A; TNFSF15
In the case of B3, the binding result in test [3] was “binds”.

B4: H1L2-Fab-HSA (Fab)
heavy: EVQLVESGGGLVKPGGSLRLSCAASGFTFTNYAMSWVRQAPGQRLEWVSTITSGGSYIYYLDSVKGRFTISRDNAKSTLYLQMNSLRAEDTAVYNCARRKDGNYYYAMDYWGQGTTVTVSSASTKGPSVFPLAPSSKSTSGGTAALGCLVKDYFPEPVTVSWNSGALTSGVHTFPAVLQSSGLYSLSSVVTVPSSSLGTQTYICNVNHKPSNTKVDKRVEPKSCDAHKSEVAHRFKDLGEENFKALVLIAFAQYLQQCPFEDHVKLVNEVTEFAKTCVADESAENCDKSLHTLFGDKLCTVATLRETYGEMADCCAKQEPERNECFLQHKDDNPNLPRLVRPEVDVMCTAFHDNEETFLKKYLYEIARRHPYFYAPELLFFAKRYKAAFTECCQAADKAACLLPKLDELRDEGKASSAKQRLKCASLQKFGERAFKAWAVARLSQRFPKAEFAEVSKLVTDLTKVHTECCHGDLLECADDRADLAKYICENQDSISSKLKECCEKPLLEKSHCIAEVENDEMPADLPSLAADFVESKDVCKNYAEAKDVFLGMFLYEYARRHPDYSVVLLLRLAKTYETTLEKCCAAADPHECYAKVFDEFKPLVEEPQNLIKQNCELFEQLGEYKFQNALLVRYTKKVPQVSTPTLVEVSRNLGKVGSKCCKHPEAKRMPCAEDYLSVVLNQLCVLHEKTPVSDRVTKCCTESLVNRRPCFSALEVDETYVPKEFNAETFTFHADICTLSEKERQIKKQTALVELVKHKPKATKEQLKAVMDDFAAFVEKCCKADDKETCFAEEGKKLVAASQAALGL
light: DIVLTQSPSSLSASVGDRVTITCRASESVDSYGNSFIHWYQQKPGQPPKLLIYRASNLESGIPARFSGSGSRTDFTLTISSLQPEDFATYYCQQSYEDPWTFGGGTKLEIKRTVAAPSVFIFPPSDEQLKSGTASVVCLLNNFYPREAKVQWKVDNALQSGNSQESVTEQDSKDSTYSLSSTLTLSKADYEKHKVYACEVTHQGLSSPVTKSFNRGEC
notes: also called AB13350-C1
In the case of B4, the affinity in test [4], expressed as Kd, was 3.06 nM. Also, in test [5], the “Ratio of binding relative to H0L0-Fab” value came out at 0.6.

B5: H5L2-Fab-HSA (Fab)
heavy: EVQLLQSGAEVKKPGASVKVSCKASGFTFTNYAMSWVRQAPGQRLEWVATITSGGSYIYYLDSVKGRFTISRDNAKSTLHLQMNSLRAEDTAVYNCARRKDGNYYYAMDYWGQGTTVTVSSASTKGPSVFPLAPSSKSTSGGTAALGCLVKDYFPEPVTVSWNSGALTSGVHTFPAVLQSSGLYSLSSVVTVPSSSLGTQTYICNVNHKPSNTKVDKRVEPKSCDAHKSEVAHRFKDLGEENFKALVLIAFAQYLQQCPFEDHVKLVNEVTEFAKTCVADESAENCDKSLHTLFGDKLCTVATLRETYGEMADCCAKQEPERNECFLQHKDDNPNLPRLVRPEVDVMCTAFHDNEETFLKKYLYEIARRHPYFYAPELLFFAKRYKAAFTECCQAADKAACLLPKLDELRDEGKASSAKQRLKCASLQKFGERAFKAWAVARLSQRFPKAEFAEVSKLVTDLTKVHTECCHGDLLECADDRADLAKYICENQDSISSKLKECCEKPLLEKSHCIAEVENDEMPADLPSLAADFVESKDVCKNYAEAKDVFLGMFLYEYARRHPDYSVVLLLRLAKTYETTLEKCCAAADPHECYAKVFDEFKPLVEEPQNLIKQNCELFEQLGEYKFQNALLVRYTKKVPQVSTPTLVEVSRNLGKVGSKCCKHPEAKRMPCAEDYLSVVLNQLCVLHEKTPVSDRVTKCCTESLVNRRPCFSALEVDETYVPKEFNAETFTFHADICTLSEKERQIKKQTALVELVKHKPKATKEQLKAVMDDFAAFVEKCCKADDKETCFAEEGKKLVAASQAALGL
light: B4 light
notes: also called AB13351-C1
Take B5: in test [4], the Kd came out at 7.52 nM. Moreover, the “Ratio of binding relative to H0L0-Fab” value in test [5] amounted to 1.4.

B6: H1.1L4-Fab (Fab, V domains shown)
VH: EVQLVESGGGLVKPGGSLRLSCAASGFTFTNYAMSWVRQAPGQRLEWVSTITSGGSYIYYLDSVKGRFTISRDNAKSTLYLQMNSLRAEDTAVYYCARRKDGNYYYAMDYWGQGTTVTVSS
VL: DIVLTQTPLSLSVTPGQPASISCRASESVDSYGNSFIHWYQQKPGQPPKLLIYRASNLESGIPARFSGSGSRTDFTLKISRVEAEDVGVYYCQQSYEDPWTFGGGTKLEIKR
Regarding B6, in test [1], the “Ratio of binding relative to H0L0-Fab” value amounted to 0.94. The Kd in test [2] was 1.29 nM.

B7: H5.3L4-Fab (Fab, V domains shown)
VH: B1 VH with Q1E, Q3M, V5L, S9A, L11V, K43Q, E73D, Y80H, T88A, L93V
VL: B6 VL
Regarding B7, the “Ratio of binding relative to H0L0-Fab” value in test [1] turned out to be 1.28. In test [2], the affinity, expressed as Kd, was 1.76 nM.

B8: H1.1L1-Fab (Fab, V domains shown)
VH: B6 VH
VL: B1 VL with S9A, S10T, A13L, V15P, D17E, V19A, I21L, T22S, Q83E, T89V
B8: the “Ratio of binding relative to H0L0-Fab” value in test [1] was 1.06. Moreover, the dissociation constant (Kd) in test [2] was 1.46 nM.

B9: H1.1L2-Fab (Fab, V domains shown)
VH: B6 VH
VL: B1 VL
As for B9, in test [1], the “Ratio of binding relative to H0L0-Fab” value stood at 0.85. Further, in test [2], the Kd is 1.17 nM.

B10: H0L0-Fab (Fab, V domains shown)
VH: EVMLVESGGGLVKPGGSLKLSCAASGFTFTNYAMSWVRQTPEKRLEWVATITSGGSYIYYLDSVKGRFTISRDNAKSTLYLQMSSLRSEDTAIYNCARRKDGNYYYAMDYWGQGTSVTVSS
VL: DIVLTQSPASLAVSLGQRATISCRASESVDSYGNSFIHWYQQKAGQPPKLLIYRASNLESGIPARFSGSGSRTDFTLTINPVEADDVATYYCQQSYEDPWTFGGGTKLEIKR
notes: also called 11H08-Fab; parental anti-DR3 molecule
Regarding B10, the “Ratio of binding relative to H0L0-Fab” value in test [1] amounted to 1. Besides, binding in test [2] was put at a Kd of 1.37 nM.

B11: H0.1L0-Fab (Fab, V domains shown)
VH: B10 VH with N95Y
VL: B10 VL
In the case of B11, in test [1], the “Ratio of binding relative to H0L0-Fab” value was found to be 1.09. The molecule further displayed a Kd in test [2] of 1.5 nM.
